Legend:
[1] = Serum stability in PBS-buffered fetal calf serum (PAGE of 32P-labeled aptamer); assay type: in vitro ADME; conditions: 10% PBS-buffered FCS, 37° C., 0 to 72 h
Method: (§1) Serum stabilities of trCLN3, its two point mutant non-binding variant trCLN3.mut and their corresponding lipid-functionalized derivatives trCLN3-L4 and trCLN3.mut-L4 were investigated in fetal calf serum (FCS) and human blood serum. For this purpose, the aptamer motifs were labeled at their 5′-end with ^32P to form radiolabeled oligonucleotides. The degradation tests of all the aptamer motifs were performed for 60-72 h at 37°° C. 6 pmol (12 μl of 0.5 μM) of the radio-labeled aptamer (5′-end-labeled with γ-^32P) was incubated in a volume of 300 μl freshly thawed PBS-buffered FCS or human blood serum (270 μl serum+30 μl 10×PBS). For each measurement, 10 μl of the samples were removed, mixed with 90 μl of gel loading buffer (80% formamide+5 mM EDTA+0.01% SDS) and subsequently stored at −20° C. Aliquots of samples were taken after indicated time intervals of 0, 0.3, 1.5, 3, 6, 24, 48, 60 and 72h respectively. The serum stability of the aptamer in FCS or in HBS at different time intervals were analyzed on a denaturing PAGE by loading 10 μl of each sample onto a 10% TAE-Urea gel and running the gels for 90 minutes at 350 V. Gels were wrapped in clingfilm and exposed to a phosphorimager screen in a closed cassette over a period of 12 h and finally the residual intact aptamer bands were analyzed by scanning the screen in a phosphorimage-scanner (FujiFilm FLA 3000). Intensities of the residual intact aptamer bands were calculated applying AIDA image analyzer software program. Serums half-lives of the selected aptamers were determined by using a half-life curve-fitting data analysis program (GraphPad Prism).

cMet = molecular target: T1, cMet (Homo sapiens, UniProt P08581); experiment: Competitive filter-binding assay against γ-32P-labeled trCLN3; conditions: competition with γ-32P-trCLN3, cMet ~50 nM, competitor 1 μM-25 pM, 37° C.
T1 construct: cMet-Fc, which represents the ectodomain of cMet fused to the Fc domain of human IgG1 was purchased from R&D Systems; purchased R&D Systems
T1 sequence (P08581 25-932 limits assumed): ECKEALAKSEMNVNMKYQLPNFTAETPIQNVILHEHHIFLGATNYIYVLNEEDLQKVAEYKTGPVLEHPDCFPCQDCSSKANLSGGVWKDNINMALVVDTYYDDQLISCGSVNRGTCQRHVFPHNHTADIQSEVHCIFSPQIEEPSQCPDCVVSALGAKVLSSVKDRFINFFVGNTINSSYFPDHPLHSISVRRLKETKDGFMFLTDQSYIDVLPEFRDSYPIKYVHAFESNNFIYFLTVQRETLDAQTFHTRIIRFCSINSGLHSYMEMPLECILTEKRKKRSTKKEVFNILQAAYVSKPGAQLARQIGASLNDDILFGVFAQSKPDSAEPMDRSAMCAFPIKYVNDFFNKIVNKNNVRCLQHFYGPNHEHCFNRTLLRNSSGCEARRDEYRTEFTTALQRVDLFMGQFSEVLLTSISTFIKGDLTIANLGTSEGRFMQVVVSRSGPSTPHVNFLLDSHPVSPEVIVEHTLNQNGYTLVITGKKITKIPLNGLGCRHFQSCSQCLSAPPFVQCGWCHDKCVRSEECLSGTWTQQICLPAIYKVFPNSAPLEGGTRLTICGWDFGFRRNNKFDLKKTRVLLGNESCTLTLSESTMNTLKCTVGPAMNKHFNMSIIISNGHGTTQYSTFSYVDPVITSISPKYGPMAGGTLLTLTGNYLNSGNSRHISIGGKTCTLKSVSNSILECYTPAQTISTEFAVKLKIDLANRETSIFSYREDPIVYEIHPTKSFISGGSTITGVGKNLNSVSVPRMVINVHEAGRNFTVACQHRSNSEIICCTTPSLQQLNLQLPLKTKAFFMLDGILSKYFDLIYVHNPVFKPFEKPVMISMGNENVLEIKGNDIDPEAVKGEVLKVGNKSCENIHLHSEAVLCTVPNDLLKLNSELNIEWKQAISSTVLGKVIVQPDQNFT
Method: To test the effect of lipid-modification on trCLN3 binding properties, we determined IC50 values for each trCLN3 derivative by a competitive filter retention assay in which varying concentrations of unlabeled 5′-(1-dodecynyl)-functionalized trCLN3 aptamers competed with constant amounts of γ-^32P-labeled trCLN3 in binding to cMet. Two control experiments were also performed using unlabeled trCLN3 and its two point mutant variant trCLN3.mut as competitors.
First, the trCLN3 motif was 5′-end-labeled with γ-^32P ATP using T4 polynucleotide kinase. An aliquot of 20 μL solution containing 50 pmol trCLN3. 6.7 pmol γ-^32P ATP and 20 U T4 polynucleotide kinase in 1× polynucleotide kinase buffer (New England Biolabs) was incubated at 37° C. for 45 min. followed by removal of unreacted γ-^32P ATP using an Illustra G-25 microspin column (GE Healthcare. München, Germany). The purity of the radiolabeled aptamer was confirmed using a 10% PAGE-gel.
0.25 mg/ml BSA. 2 mM MgCl2 in 1×PBS, pH 7.4. […] Residual radioactivity due to cMet bound labeled aptamers was quantified using Fujifilm Fla-3000 PhosphorImager and AIDA software. The curves were fitted with GraphPadPrism 3.02 plotting non-linear regression curve and the IC50 values have been calculated assuming a competition for single binding site.

[2] = Serum stability in PBS-buffered human blood serum (PAGE of 32P-labeled aptamer); assay type: in vitro ADME; conditions: 10% PBS-buffered HBS, 37° C., 0 to 72 h
Method: as §1

trCLN3-L4: trCLN3 aptamer with four C12-lipid-modified dU residues at the 5′-end; self-assembles into micellar nanoconstructs (TGGATGGTAGCTCGGTCGGGGTGGGTGGGTTGGCAAGTCT; four 5' C12-lipid-modified dU residues, chemistry not fully specified)
serum half-life (t1/2) [1]: no significant degradation even up to 72 h | IC50 (cMet): 43 nM | serum half-life (t1/2) [2]: no significant degradation even up to 72 h
